B1: IQUB (parent)
chain: CRNCINLQNEAQKRESFLKYKCLL
B2: WDR41 (parent)
chain: HVGELIIWDALDWTMQAYERNFWD
B3: KRT15 (parent)
chain: FGGGSTRGGSLLAGGGGFGGGSLS

Variants of: B1
Assay: protein stability index of a GFP-peptide fusion (GPS, HEK-293T) (PSI 1-6); higher = more stable
Settings: c terminus: a fixed tail appended
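Note: lentivirally expressed fusions sorted by FACS into six bins by GFP to DsRed ratio, PSI derived from sequencing read proportions per bin multiplied by bin number.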

Variant	protein stability index
CRNCINLQNLAQKRESFLKYKCLL [E10L]	1.65
CRNCINLQNEAQKRESFLKYKCLG [L24G]	1.37
CRNCINLQNEAQKRESFLKYKCLD [L24D]	2.81
CRNCINLQNEAQKREKFLKYKCLL [S16K]	1.88
CRNCIMLQNEAQKRESFLKYKCLL [N6M]	1.46
CRNCIELQNEAQKRESFLKYKCLL [N6E]	1.7
CRNCINLQNEAQKRESFLKYMCLL [K21M]	1.76
CRNCINLQNEAQKRESFLKYPCLL [K21P]	1.74
CRNCINLQNEAQKRESFLKDKCLL [Y20D]	2.11
CRNCINLQNEAQKRESFLKEKCLL [Y20E]	2.17
CRACINLQNEAQKRESFLKYKCLL [N3A]	2.14
CRNCINLQNEAQKRESTLKYKCLL [F17T]	2.74
CRNCINLQNEAQKEESFLKYKCLL [R14E]	1.36
CRNCINLQNEAQKRESFLKYKCAL [L23A]	1.5
CRNCINLQNEAQKRESFLKYKCML [L23M]	1.77
CRNCINLQNEAQKRESFLKYKCVL [L23V]	3.23
CRNNINLQNEAQKRESFLKYKCLL [C4N]	1.93
CRNCCNLQNEAQKRESFLKYKCLL [I5C]	1.64
MRNCINLQNEAQKRESFLKYKCLL [C1M]	1.91

Variants of: B2
Assay: as above
Settings: c terminus: a fixed tail appended

Variant	protein stability index
CVGELIIWDALDWTMQAYERNFWD [H1C]	2.04

Variants of: B3
Assay: as above
Settings: c terminus: a fixed tail appended

Variant	protein stability index
FGGGSTRGGQLLAGGGGFGGGSLS [S10Q]	1.89
FGGGSTRGGKLLAGGGGFGGGSLS [S10K]	1.28
FGGGSTRGGILLAGGGGFGGGSLS [S10I]	1.79
FGGGSTRGGPLLAGGGGFGGGSLS [S10P]	2.12
FGGGSTRGGWLLAGGGGFGGGSLS [S10W]	4.19
FGGGSTRGGRLLAGGGGFGGGSLS [S10R]	1.4
FGGGSTRGGSLLAGGGGFGGGSLD [S24D]	1.61
FGGGSTRGGSLLAGGGGFGGGSLM [S24M]	3.68
FGGGSTRGGSLLAGGGGFGGGSLK [S24K]	1.49
FGGGSTRGGSLLAGGGGFGGGSLP [S24P]	2.66
FGGGSTRGGSLLAGGGGFGGGSLI [S24I]	1.84
FGGGSTRGGSLLAGGGGFGGGSLT [S24T]	2.51
FGGGSTRGGSLLAGGGGFGGGSLN [S24N]	1.71
FGGGSTRRGSLLAGGGGFGGGSLS [G8R]	2.5
FGGGSTRTGSLLAGGGGFGGGSLS [G8T]	1.8
FGGGSTRDGSLLAGGGGFGGGSLS [G8D]	1.57
FGGGSTRIGSLLAGGGGFGGGSLS [G8I]	1.58
FGGGSTRFGSLLAGGGGFGGGSLS [G8F]	3.67
FGGGSTRSGSLLAGGGGFGGGSLS [G8S]	1.62
FGGGSTREGSLLAGGGGFGGGSLS [G8E]	1.64
KGGGSTRGGSLLAGGGGFGGGSLS [F1K]	4.35
MGGGSTRGGSLLAGGGGFGGGSLS [F1M]	2.08
YGGGSTRGGSLLAGGGGFGGGSLS [F1Y]	2.25
IGGGSTRGGSLLAGGGGFGGGSLS [F1I]	2.53

Variant	protein stability index
SGGGSTRGGSLLAGGGGFGGGSLS [F1S]	3.46
FGGGSTRGGSLLAGGGGFGGGHLS [S22H]	2.29
FGGGSTRGGSLLAGGGGFGGGRLS [S22R]	2.82
FGGGSTRGGSLLAGGGGFGGGTLS [S22T]	2.05
FGGGSTRGGSLLAGGGGFGGGQLS [S22Q]	1.48
FGGGSTRGGSLLAGGGGFGGGLLS [S22L]	1.6
FGGGSTRGGSLLAGGGGFGGGFLS [S22F]	2.49
FGGGSTRGGSLLAGGGGFGGLSLS [G21L]	1.52
FGGGSTRGGSLLAGGGGFGGISLS [G21I]	1.34
FGGGSTRGGSLLAGGGGFGGSSLS [G21S]	1.95
FGGGSTRGGSLLAGGGGFGGNSLS [G21N]	2.48
FGGGSTRGGSLLAGGGGFGGRSLS [G21R]	1.24
FGGGSTRGGSLLAGGGGFGGDSLS [G21D]	1.75
FGGGSTRGGSLLAGGGGFGGPSLS [G21P]	2.65
FGGGSTRGGSLLAGRGGFGGGSLS [G15R]	2.08
FGGGSTRGGSLLAGVGGFGGGSLS [G15V]	1.34
FGGGSTRGGSLLAGAGGFGGGSLS [G15A]	1.9
FGGGSTRGGSLLAGHGGFGGGSLS [G15H]	3.02
FGGGSTRGGSLLAGCGGFGGGSLS [G15C]	1.56
FGGGSTRGGSLLAGKGGFGGGSLS [G15K]	3.17
FGGGSTRGGSLLAGGMGFGGGSLS [G16M]	2.16
FGGGSTRGGSLLAGGEGFGGGSLS [G16E]	1.55
FGGGSTRGGSLLAGGQGFGGGSLS [G16Q]	2.4
FGGGSTRGGSLLAGGRGFGGGSLS [G16R]	1.56

Variant	protein stability index
FGGGSTRGGSLLAGGYGFGGGSLS [G16Y]	1.9
FGGGSTRGGSLLAGGVGFGGGSLS [G16V]	1.28
FGGGSTRGGSLLAGGKGFGGGSLS [G16K]	2.14
FGGGSTRGGSLLAGGTGFGGGSLS [G16T]	1.09
FGGGSTRGGSLLAGGDGFGGGSLS [G16D]	1.84
FGGGSTRGGSLLAGGGGFGGGSGS [L23G]	2.26
FGGGSTRGGSLLAGGGGFGGGSIS [L23I]	1.61
FGGGSTRGGSLLAGGGGFGGGSMS [L23M]	2.73
FGGGSTRGGSLLAGGGGFGGGSQS [L23Q]	1.96
FGGGSTRGGSLLAGGGGPGGGSLS [F18P]	2.21
FGGGSTRGGSLLAGGGGIGGGSLS [F18I]	1.76
FGGGSTRGGSLLAGGGGHGGGSLS [F18H]	3
FGGGSTRGGSLLARGGGFGGGSLS [G14R]	2.42
FGGGSTRGGSLLAPGGGFGGGSLS [G14P]	2.17
FGGGSTRGGSLLAIGGGFGGGSLS [G14I]	1.85
FGGGSTRGGSLLASGGGFGGGSLS [G14S]	2.43
FGGGSTRGGSLLANGGGFGGGSLS [G14N]	2.94
FGGGSTRGDSLLAGGGGFGGGSLS [G9D]	2.73
FGGGSTRGVSLLAGGGGFGGGSLS [G9V]	1.84
FGGGSTRGSSLLAGGGGFGGGSLS [G9S]	1.05
FGGGSTRGNSLLAGGGGFGGGSLS [G9N]	2.35
FGGGSTRGQSLLAGGGGFGGGSLS [G9Q]	3.25
FFGGSTRGGSLLAGGGGFGGGSLS [G2F]	2.47
FPGGSTRGGSLLAGGGGFGGGSLS [G2P]	1.96

Variant	protein stability index
FSGGSTRGGSLLAGGGGFGGGSLS [G2S]	1.75
FMGGSTRGGSLLAGGGGFGGGSLS [G2M]	2.15
FWGGSTRGGSLLAGGGGFGGGSLS [G2W]	2.54
FQGGSTRGGSLLAGGGGFGGGSLS [G2Q]	2
FKGGSTRGGSLLAGGGGFGGGSLS [G2K]	3.23
FRGGSTRGGSLLAGGGGFGGGSLS [G2R]	2.79
FNGGSTRGGSLLAGGGGFGGGSLS [G2N]	2.94
FGIGSTRGGSLLAGGGGFGGGSLS [G3I]	3.22
FGDGSTRGGSLLAGGGGFGGGSLS [G3D]	1.32
FGQGSTRGGSLLAGGGGFGGGSLS [G3Q]	2.17
FGLGSTRGGSLLAGGGGFGGGSLS [G3L]	2.42
FGAGSTRGGSLLAGGGGFGGGSLS [G3A]	1.79
FGFGSTRGGSLLAGGGGFGGGSLS [G3F]	1.7
FGHGSTRGGSLLAGGGGFGGGSLS [G3H]	1.51
FGYGSTRGGSLLAGGGGFGGGSLS [G3Y]	2.2
FGMGSTRGGSLLAGGGGFGGGSLS [G3M]	2.74
FGRGSTRGGSLLAGGGGFGGGSLS [G3R]	2.26
FGWGSTRGGSLLAGGGGFGGGSLS [G3W]	1.29
FGNGSTRGGSLLAGGGGFGGGSLS [G3N]	1.93
FGGGSTRGGSMLAGGGGFGGGSLS [L11M]	1.6
FGGGSTRGGSFLAGGGGFGGGSLS [L11F]	1
FGGGSTRGGSILAGGGGFGGGSLS [L11I]	1.56
FGGGSTRGGSYLAGGGGFGGGSLS [L11Y]	1.97
FGGGSTRGGSALAGGGGFGGGSLS [L11A]	2.83

Variant	protein stability index
FGGGSTRGGSNLAGGGGFGGGSLS [L11N]	2.78
FGGGSTRGGSRLAGGGGFGGGSLS [L11R]	2.08
FGGGPTRGGSLLAGGGGFGGGSLS [S5P]	1.53
FGGGATRGGSLLAGGGGFGGGSLS [S5A]	1.57
FGGGQTRGGSLLAGGGGFGGGSLS [S5Q]	2.55
FGGGFTRGGSLLAGGGGFGGGSLS [S5F]	2.1
FGGGSTRGGSLLAGGGHFGGGSLS [G17H]	1.63
FGGGSTRGGSLLAGGGMFGGGSLS [G17M]	1.07
FGGGSTRGGSLLAGGGCFGGGSLS [G17C]	1.03
FGGGSTRGGSLLAGGGTFGGGSLS [G17T]	3.32
FGGGSTRGGSLLAGGGSFGGGSLS [G17S]	1.64
FGGGSTRGGSLLAGGGNFGGGSLS [G17N]	1.41
FGGGSTRGGSLLAGGGVFGGGSLS [G17V]	1.23
FGGGSTRGGSLLAGGGEFGGGSLS [G17E]	2.74
FGGGSTRGGSLLAGGGKFGGGSLS [G17K]	1.41
FGGGSTRGGSLLAGGGGFIGGSLS [G19I]	3.12
FGGGSTRGGSLLAGGGGFKGGSLS [G19K]	3.1
FGGGSTRGGSLLAGGGGFNGGSLS [G19N]	2
FGGGSTRGGSLLAGGGGFDGGSLS [G19D]	1.47
FGGGSTRGGSLLAGGGGFSGGSLS [G19S]	2.06
FGGGSTRGGSLLAGGGGFFGGSLS [G19F]	2.8
FGGGSTRGGSLLAGGGGFEGGSLS [G19E]	2.35
FGGGSTRGGSLLAGGGGFGPGSLS [G20P]	3.18
FGGGSTRGGSLLAGGGGFGYGSLS [G20Y]	2.52

Variant	protein stability index
FGGGSTRGGSLLAGGGGFGKGSLS [G20K]	2.1
FGGGSTRGGSLLAGGGGFGTGSLS [G20T]	1.74
FGGGSTRGGSLLAGGGGFGQGSLS [G20Q]	1.09
FGGGSTRGGSLLAGGGGFGSGSLS [G20S]	1.77
FGGGSTRGGSLLAGGGGFGCGSLS [G20C]	1.41
FGGGSTRGGSLLAGGGGFGNGSLS [G20N]	2.17
FGGGSTKGGSLLAGGGGFGGGSLS [R7K]	2.32
FGGGSTPGGSLLAGGGGFGGGSLS [R7P]	3.05
FGGGSTNGGSLLAGGGGFGGGSLS [R7N]	1.7
FGGGSTDGGSLLAGGGGFGGGSLS [R7D]	1.54
FGGLSTRGGSLLAGGGGFGGGSLS [G4L]	2.04
FGGRSTRGGSLLAGGGGFGGGSLS [G4R]	1.58
FGGSSTRGGSLLAGGGGFGGGSLS [G4S]	1.68
FGGCSTRGGSLLAGGGGFGGGSLS [G4C]	1.37
FGGFSTRGGSLLAGGGGFGGGSLS [G4F]	1.77
FGGHSTRGGSLLAGGGGFGGGSLS [G4H]	2.22
FGGQSTRGGSLLAGGGGFGGGSLS [G4Q]	2.17
FGGWSTRGGSLLAGGGGFGGGSLS [G4W]	2.61
FGGESTRGGSLLAGGGGFGGGSLS [G4E]	2.55
FGGKSTRGGSLLAGGGGFGGGSLS [G4K]	2.15
FGGPSTRGGSLLAGGGGFGGGSLS [G4P]	2.94
FGGISTRGGSLLAGGGGFGGGSLS [G4I]	2.59
FGGMSTRGGSLLAGGGGFGGGSLS [G4M]	1.89
FGGGSTRGGSLLMGGGGFGGGSLS [A13M]	2.13

Variant	protein stability index
FGGGSTRGGSLLHGGGGFGGGSLS [A13H]	2.53
FGGGSTRGGSLLVGGGGFGGGSLS [A13V]	1.94
FGGGSTRGGSLLIGGGGFGGGSLS [A13I]	1.46
FGGGSTRGGSLLLGGGGFGGGSLS [A13L]	2.1
FGGGSTRGGSLLRGGGGFGGGSLS [A13R]	2.67
FGGGSTRGGSLLCGGGGFGGGSLS [A13C]	1.94
FGGGSTRGGSLLDGGGGFGGGSLS [A13D]	3.4
FGGGSTRGGSLPAGGGGFGGGSLS [L12P]	3.24
FGGGSTRGGSLRAGGGGFGGGSLS [L12R]	3.6
FGGGSTRGGSLEAGGGGFGGGSLS [L12E]	2.72
FGGGSTRGGSLGAGGGGFGGGSLS [L12G]	3.23
FGGGSTRGGSLNAGGGGFGGGSLS [L12N]	3.01
FGGGSTRGGSLDAGGGGFGGGSLS [L12D]	3.38
FGGGSTRGGSLMAGGGGFGGGSLS [L12M]	2.58
FGGGSTRGGSLQAGGGGFGGGSLS [L12Q]	2.67
FGGGSTRGGSLIAGGGGFGGGSLS [L12I]	2.75
FGGGSTRGGSLYAGGGGFGGGSLS [L12Y]	1.52
FGGGSTRGGSLCAGGGGFGGGSLS [L12C]	1.7
FGGGSFRGGSLLAGGGGFGGGSLS [T6F]	2.52
FGGGSMRGGSLLAGGGGFGGGSLS [T6M]	1.33
FGGGSKRGGSLLAGGGGFGGGSLS [T6K]	1.66
FGGGSHRGGSLLAGGGGFGGGSLS [T6H]	1.48
FGGGSVRGGSLLAGGGGFGGGSLS [T6V]	1.23
FGGGSERGGSLLAGGGGFGGGSLS [T6E]	1.62

From the supplement of paper PMC10567573
